Source: the supplement of paper PMC10724198
± gives the standard deviation of the averaged measurements.

What was measured:
[1] = tested on: Saccharomyces cerevisiae; test: protein stability index of tFT-peptide fusion (C-terminal peptide) (PSI (0-1 scale)); higher = more stable (slower turnover)
Method: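 MPS profiling in S. cerevisiae of the tFT-X12 degron library: putative degron peptides plus stable controls, 12 aa, fused to the C-terminus of a sfGFP-mCherry timer. Cells are FACS-sorted into 8 mCherry/sfGFP bins and deep-sequenced. PSI runs from 0 (unstable) to 1 (stable). Backgrounds are wild type, das1Δ and doa10Δ at 30 °C, and wild type, das1Δ, cdc34-1 and cdc53-1 at 37 °C; 2-3 technical replicates each.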

[2] = tested on: Saccharomyces cerevisiae; test: as above; settings: genetic background: wild type; temperature: 30 C
[3] = genetic background: cdc34-1, temperature: 37 C
[4] = genetic background: cdc53-1, temperature: 37 C
[5] = genetic background: das1 deletion, temperature: 30 C
[6] = genetic background: das1 deletion, temperature: 37 C
[7] = genetic background: doa10 deletion, temperature: 30 C
[8] = genetic background: wild type, temperature: 30 C
[9] = genetic background: wild type, temperature: 37 C
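Further: PSI is a weighted mean of sequencing reads over stability bins, variants kept only with over 10 reads, mCherry proximal and sfGFP distal, peptide attached via GGGS linker.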

| Sequence | protein stability index [1, 3] | protein stability index [1, 4] | protein stability index [1, 5] | protein stability index [1, 6] | protein stability index [1, 7] | protein stability index [1, 8] | protein stability index [1, 9] | protein stability index [2] |
| --- | --- | --- | --- | --- | --- | --- | --- | --- |
| RWSEHGFLVFLS | 0.643 ± 0.022 | 0.736 ± 0.012 | 0.664 ± 0.016 | 0.7408 ± 0.0018 | 0.156 ± 0.015 | 0.158 ± 0.015 | 0.373 ± 0.04 | 0.301 ± 0.021 |
| SARSYLTERLLA | 0.6255 ± 0.0024 | 0.714 ± 0.016 | 0.599 ± 0.021 | 0.721 ± 0.022 | 0.13 ± 0.018 | 0.162 ± 0.022 | 0.239 ± 0.0068 | 0.252 ± 0.0087 |
| SASPFYLPPPPV | 0.709 ± 0.024 | 0.7371 ± 0.0058 | 0.679 ± 0.043 | 0.735 ± 0.017 | 0.675 ± 0.018 | 0.671 ± 0.023 | 0.731 ± 0.012 | 0.735 ± 0.024 |
| SAVLFLLFVYVR | 0.0536 ± 0.0084 | 0.081 ± 0.012 | 0.156 ± 0.026 | 0.234 ± 0.011 | 0.1678 ± 0.00051 | 0.14 ± 0.046 | 0.176 ± 0.023 | 0.254 ± 0.0093 |
| SCIFVSSYFFVF | 0.417 ± 0.0029 | 0.465 ± 0.057 | 0.364 ± 0.025 | 0.506 ± 0.012 | 0.179 ± 0.0043 | 0.18 ± 0.02 | 0.307 ± 0.00077 | 0.251 ± 0.02 |
| SCLRVYFSVVVS | 0.231 ± 0.013 | 0.295 ± 0.048 | 0.286 ± 0.037 | 0.389 ± 0.015 | 0.258 ± 0.0076 | 0.288 ± 0.017 | 0.36 ± 0.027 | 0.359 ± 0.031 |
| SCLSLALLVFFG | 0.442 ± 0.014 | 0.524 ± 0.031 | 0.36 ± 0.019 | 0.523 ± 0.014 | 0.315 ± 0.0051 | 0.349 ± 0.02 | 0.515 ± 0.039 | 0.411 ± 0.061 |
| SFFFSFFPYFFC | 0.6386 ± 0.0014 | 0.675 ± 0.02 | 0.606 ± 0.06 | 0.732 ± 0.023 | 0.401 ± 0.012 | 0.394 ± 0.017 | 0.561 ± 0.015 | 0.4425 ± 0.0029 |
| SFTVFVVLLFPP | 0.311 ± 0.021 | 0.437 ± 0.05 | 0.284 ± 0.032 | 0.476 ± 0.024 | 0.288 ± 0.013 | 0.304 ± 0.0095 | 0.4293 ± 0.00063 | 0.323 ± 0.062 |
| SFVGCWFVLLVR | 0.0307 ± 0.0085 | 0.0395 ± 0.0077 | 0.138 ± 0.024 | 0.235 ± 0.003 | 0.193 ± 0.0003 | 0.122 ± 0.025 | 0.159 ± 0.0049 | 0.179 ± 0.036 |
| SFWLFSSIGVCF | 0.594 ± 0.035 | 0.5958 ± 0.004 | 0.461 ± 0.031 | 0.578 ± 0.017 | 0.4316 ± 0.00081 | 0.465 ± 0.011 | 0.5772 ± 0.0052 | 0.512 ± 0.019 |
| SGMLVYFGTVCY | 0.502 ± 0.0077 | 0.599 ± 0.13 | 0.341 ± 0.03 | 0.577 ± 0.014 | 0.318 ± 0.028 | 0.357 ± 0.0091 | 0.511 ± 0.027 | 0.4498 ± 0.0028 |
| SKSRKTGWMLIS | 0.622 ± 0.055 | 0.743 ± 0.029 | 0.632 ± 0.033 | 0.74 ± 0.013 | 0.156 ± 0.014 | 0.164 ± 0.033 | 0.427 ± 0.022 | 0.153 ± 0.015 |
| SLFSPPVLATPS | 0.668 ± 0.031 | 0.7094 ± 0.0039 | 0.572 ± 0.018 | 0.705 ± 0.011 | 0.556 ± 0.02 | 0.569 ± 0.022 | 0.6797 ± 0.0026 | 0.0217 ± 0.0033 |
| SLGHIGFWRFAG | 0.554 ± 0.0087 | 0.709 ± 0.0081 | 0.66 ± 0.009 | 0.77 ± 0.011 | 0.103 ± 0.018 | 0.108 ± 0.013 | 0.169 ± 0.0063 | 0.191 ± 0.011 |
| SLLFVFVSVGCI | 0.0483 ± 0.0074 | 0.147 ± 0.0097 | 0.148 ± 0.03 | 0.246 ± 0.035 | 0.116 ± 0.0038 | 0.148 ± 0.025 | 0.166 ± 0.023 | 0.253 ± 0.016 |
| SLRSLYLLARLS | 0.518 ± 0.061 | 0.689 ± 0.047 | 0.636 ± 0.033 | 0.732 ± 0.012 | 0.076 ± 0.017 | 0.0777 ± 0.024 | 0.0971 ± 0.015 | 0.194 ± 0.021 |
| SLSPVFVAVWFL | 0.466 ± 0.012 | 0.4933 ± 0.0015 | 0.383 ± 0.057 | 0.537 ± 0.01 | 0.323 ± 0.0075 | 0.331 ± 0.016 | 0.474 ± 0.026 | 0.432 ± 0.013 |
| SLVLLLLITFSL | 0.431 ± 0.023 | 0.507 ± 0.015 | 0.376 ± 0.025 | 0.527 ± 0.014 | 0.377 ± 0.016 | 0.373 ± 0.02 | 0.495 ± 0.021 | 0.491 ± 0.017 |
| SNFFPVPLLLFR | 0.211 ± 0.0084 | 0.117 ± 0.024 | 0.309 ± 0.016 | 0.383 ± 0.0094 | 0.647 ± 0.024 | 0.297 ± 0.019 | 0.327 ± 0.031 | 0.383 ± 0.088 |

| Sequence | protein stability index [1, 3] | protein stability index [1, 4] | protein stability index [1, 5] | protein stability index [1, 6] | protein stability index [1, 7] | protein stability index [1, 8] | protein stability index [1, 9] | protein stability index [2] |
| --- | --- | --- | --- | --- | --- | --- | --- | --- |
| SPCFLDPPRLIS | 0.663 ± 0.031 | 0.728 ± 0.025 | 0.681 ± 0.022 | 0.7568 ± 0.0044 | 0.287 ± 0.018 | 0.328 ± 0.032 | 0.536 ± 0.02 | 0.388 ± 0.025 |
| SPLHGFLFLVLL | 0.395 ± 0.03 | 0.445 ± 0.0069 | 0.403 ± 0.025 | 0.523 ± 0.012 | 0.528 ± 0.024 | 0.403 ± 0.028 | 0.496 ± 0.021 | 0.424 ± 0.021 |
| SPLLPPPLLFLS | 0.596 ± 0.056 | 0.7307 ± 0.0032 | 0.6555 ± 0.0025 | 0.729 ± 0.009 | 0.1475 ± 0.0013 | 0.168 ± 0.033 | 0.241 ± 0.033 | 0.211 ± 0.0097 |
| SRDSLLTLIPSC | 0.646 ± 0.058 | 0.733 ± 0.0095 | 0.6189 ± 0.002 | 0.7393 ± 0.0043 | 0.622 ± 0.017 | 0.636 ± 0.013 | 0.697 ± 0.0081 | 0.692 ± 0.037 |
| SRLVIGRWSVLV | 0.567 ± 0.045 | 0.617 ± 0.016 | 0.492 ± 0.03 | 0.6346 ± 0.0035 | 0.177 ± 0.013 | 0.217 ± 0.034 | 0.442 ± 0.0031 | 0.318 ± 0.019 |
| SRPEPNGLRKLV | 0.587 ± 0.009 | 0.727 ± 0.015 | 0.605 ± 0.029 | 0.751 ± 0.018 | 0.139 ± 0.024 | 0.172 ± 0.024 | 0.315 ± 0.052 | 0.293 ± 0.069 |
| SSAPTIVIWRFS | 0.672 ± 0.041 | 0.724 ± 0.026 | 0.592 ± 0.031 | 0.7 ± 0.0079 | 0.401 ± 0.024 | 0.428 ± 0.011 | 0.6081 ± 0.0015 | 0.495 ± 0.027 |
| SSGSLLLPRFLT | 0.658 ± 0.038 | 0.7301 ± 0.0046 | 0.672 ± 0.023 | 0.734 ± 0.019 | 0.222 ± 0.019 | 0.243 ± 0.038 | 0.54 ± 0.037 | 0.387 ± 0.03 |
| SSLLPLLAQLVG | 0.594 ± 0.046 | 0.7484 ± 0.0013 | 0.581 ± 0.05 | 0.68255 ± 0.00041 | 0.252 ± 0.014 | 0.265 ± 0.039 | 0.411 ± 0.01 | 0.406 ± 0.05 |
| SSMSAVFRLQVC | 0.567 ± 0.0096 | 0.657 ± 0.0093 | 0.613 ± 0.017 | 0.662 ± 0.0092 | 0.228 ± 0.001 | 0.232 ± 0.015 | 0.299 ± 0.049 | 0.276 ± 0.017 |
| SSRPLSPQSLRL | 0.637 ± 0.2 | 0.709 ± 0.043 | 0.601 ± 0.051 | 0.71 ± 0.0077 | 0.60715 ± 0.00031 | 0.605 ± 0.067 | 0.658 ± 0.032 | 0.553 ± 0.17 |
| SSVCLYWCCLFV | 0.522 ± 0.036 | 0.602 ± 0.013 | 0.443 ± 0.041 | 0.535 ± 0.016 | 0.407 ± 0.0018 | 0.426 ± 0.027 | 0.5166 ± 0.00058 | 0.432 ± 0.011 |
| SSVCYFGLLFIV | 0.452 ± 0.038 | 0.561 ± 0.015 | 0.44 ± 0.026 | 0.623 ± 0.034 | 0.103 ± 0.0046 | 0.103 ± 0.022 | 0.139 ± 0.022 | 0.184 ± 0.0042 |
| SVFRFLFLALLV | 0.2 ± 0.052 | 0.162 ± 0.018 | 0.282 ± 0.029 | 0.352 ± 0.023 | 0.173 ± 0.0056 | 0.145 ± 0.0078 | 0.18 ± 0.016 | 0.191 ± 0.016 |
| SVFVFFGFIDFL | 0.52 ± 0.015 | 0.589 ± 0.12 | 0.404 ± 0.036 | 0.6007 ± 0.0035 | 0.369 ± 0.015 | 0.412 ± 0.036 | 0.581 ± 0.0099 | 0.469 ± 0.011 |
| SVLASFFSAFVC | 0.459 ± 0.0087 | 0.6975 ± 0.0014 | 0.598 ± 0.011 | 0.7258 ± 0.0054 | 0.118 ± 0.015 | 0.118 ± 0.023 | 0.149 ± 0.0027 | 0.195 ± 0.01 |
| SVLLVFRFFWEL | 0.417 ± 0.012 | 0.461 ± 0.018 | 0.397 ± 0.026 | 0.5056 ± 0.0022 | 0.295 ± 0.018 | 0.292 ± 0.029 | 0.445 ± 0.0082 | 0.405 ± 0.098 |
| SVLVWVFGLFVI | 0.411 ± 0.012 | 0.525 ± 0.013 | 0.431 ± 0.024 | 0.56 ± 0.012 | 0.42 ± 0.028 | 0.392 ± 0.028 | 0.495 ± 0.015 | 0.446 ± 0.012 |
| SVMTFVFFISAF | 0.257 ± 0.013 | 0.397 ± 0.021 | 0.243 ± 0.039 | 0.438 ± 0.021 | 0.212 ± 0.0043 | 0.238 ± 0.037 | 0.396 ± 0.0055 | 0.344 ± 0.1 |
